The results in this text go back to paper PMC12622518 (Advanced Science, 2025).

The target of one series is T1, CsiR (Pseudomonas putida, UniProt Q88IU1).
T1 construct: full-length, His6-tagged, purified from E. coli BL21(DE3) (pETDuet-CsiR); dimer
T1 sequence (Q88IU1 1-231): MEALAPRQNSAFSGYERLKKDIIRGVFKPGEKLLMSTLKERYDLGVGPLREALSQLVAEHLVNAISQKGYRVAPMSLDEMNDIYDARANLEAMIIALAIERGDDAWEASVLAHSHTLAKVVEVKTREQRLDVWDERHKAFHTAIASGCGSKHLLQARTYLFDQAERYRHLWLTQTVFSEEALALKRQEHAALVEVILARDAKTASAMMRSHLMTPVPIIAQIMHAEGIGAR
The experiment in a line: fluorescence-based thermal shift (SYPRO Orange). Type of series: binding. The note with it: 100 µM ligand; 20 mM sodium phosphate, 150 mM NaCl, pH 7.4.

The next series deals with T2, YnfM (Escherichia coli, UniProt P43531).
T2 construct: native MFS exporter in living E. coli BL21(DE3) cells; ynfM knockout comparison with Glusor read-out
T2 sequence (P43531 1-417): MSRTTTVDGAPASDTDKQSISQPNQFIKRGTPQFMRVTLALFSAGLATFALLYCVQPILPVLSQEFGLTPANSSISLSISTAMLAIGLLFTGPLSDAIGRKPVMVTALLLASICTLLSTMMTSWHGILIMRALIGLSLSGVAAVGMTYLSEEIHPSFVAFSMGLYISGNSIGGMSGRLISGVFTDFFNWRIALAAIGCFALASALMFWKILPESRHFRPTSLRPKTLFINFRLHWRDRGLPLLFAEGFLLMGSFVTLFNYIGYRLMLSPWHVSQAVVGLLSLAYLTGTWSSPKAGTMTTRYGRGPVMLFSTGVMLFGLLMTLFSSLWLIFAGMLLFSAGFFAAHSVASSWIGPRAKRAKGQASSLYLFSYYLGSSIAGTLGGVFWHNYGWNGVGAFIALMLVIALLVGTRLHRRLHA
The experiment in a line: efflux in knockout versus parent E. coli, intra- and extracellular Glusor fluorescence. Type of series: cell-based. The settings on record: carbon starvation, 30 °C.

The target of series [1] is ligand-binding domain of CsiR (CsiR-LBD) (P. putida KT2440). The experiment in a line: SEC; gel filtration on Superdex 200 10/300 GL, 50 mM sodium phosphate buffer pH 7.2, 150 mM NaCl; mass standards aprotinin, ovalbumin, conalbumin, aldolase, ferritin. On the technique in general: SEC sorts molecules by how far they enter the pores of the column.
Series [2] deals with the molecule itself. Described as above.

For `O=C(O)CCCC(=O)O` [glutarate], on CsiR, the ΔTm entry is reported as “only glutarate induced a significant increase in the melting temperature (Tm) of CsiR”. Also, at YnfM, the “efflux in knockout versus parent E. coli, intra- and extracellular Glusor fluore” value is “YnfM may be the only functional glutarate exporter in E. coli BL21(DE3)”.

As usually defined, the stoichiometry N is the number of molecules, sites or subunits per partner or assembly. The molecule “ligand-binding domain of CsiR (CsiR-LBD) (domain or fragment)” displayed a stoichiometry N in series [1] of 2.

B1: genetically encoded glutarate fluorescent biosensor Glusor (other)
chain: LDEMNDIYDARANLEAMIIALAIERGDDAWEASVLAHSHTLAKVVEVKTREQRLDVWDERHKAFHTAIASGCGSKHLLQARTYLFDQAERYRHLWLTQTVFSEEALALKRQEHAALVEVILARDAKTASAMMRSHLMTPVPIIAQIMHAEGIGAR
Consider B1, for which the “stoichiometry N” value in series [2] stood at 2.

B2: GntR family transcriptional regulator CsiR (natural protein, P. putida KT2440, UniProt Q88IU1 1-231, looked up)
chain: MEALAPRQNSAFSGYERLKKDIIRGVFKPGEKLLMSTLKERYDLGVGPLREALSQLVAEHLVNAISQKGYRVAPMSLDEMNDIYDARANLEAMIIALAIERGDDAWEASVLAHSHTLAKVVEVKTREQRLDVWDERHKAFHTAIASGCGSKHLLQARTYLFDQAERYRHLWLTQTVFSEEALALKRQEHAALVEVILARDAKTASAMMRSHLMTPVPIIAQIMHAEGIGAR
notes: CsiR, GntR family transcriptional regulator of the csiD-lhgO operon, Pseudomonas putida KT2440; csiR gene cloned into pETDuet-1 (pETDuet-CsiR); also called His6-tagged CsiR
Consider B2, for which, in series [2], the “stoichiometry N” value was determined as 2.
